In US10508147B2, “Anti-nodal antibodies and methods of using same” (ANN AND ROBERT H. LURIE CHILDREN'S HOSPITAL OF CHICAGO, priority 2014, dated 2019):
Entries after “also recorded” stand apart in the source; their conditions may differ.

How the values were obtained:
C8161 melanoma cells = test: Soft agar clonogenic / anchorage independent growth assay; type: cell-based, human; conditions: three weeks in soft agar, vs untreated and IgG control
Experimental: (§1) Untreated cells, or cells treated with either IgG Control or 3D1 anti-Nodal antibody for 72 hours were cultured in soft agar for three weeks (soft agar clonogenic assay). […] C8161 cells were treated with either 4 μg/ml of either Santa Cruz (SC), or 3D1 function blocking anti-Nodal antibodies, or IgG Control and cultured in three dimensional cultures for 24 hours to measure their ability to engage in vasculogenic mimicry (VM).
C8161 melanoma cells (5,000 cells/well) were suspended in 0.35% agarose, RPMI 1640; 10% serum with of either 4 μg/ml mouse IgG control (Jackson ImmunoResearch, West Groove, Pa.) or 3D1 mAb (2.8 μg/ml) and were then overlayed onto a solidified layer of 0.5% agar; RPMI 1640; 10% serum in 6-well dishes. Cell clusters were allowed to form and were scored (50 cells or larger clusters) after 3 weeks in culture. Triplicate wells were averaged from separate experiments and presented as a percentage (mean±SEM) of IgG control.

C8161 cells = test: Vasculogenic mimicry / vasculogenic network formation assay in 3D culture; type: cell-based, human; conditions: 24 hours, vs IgG control
Experimental: as §1
Three-dimensional matrices were prepared by spreading 75 μl of ice-cold Matrigel (average 12-15 mg/ml; Corning, Bedford, Mass.) into 12-well culture dishes and polymerized for one hour at 37° C. C8161 human melanoma cells (1×10^5 cells/well) were then plated onto the prepared Matrigel matrices in the presence of either 4 μg/ml mouse IgG control or 3D1 mAb (2.8 μg/ml). No additional antibody was added. Tubular network formation was then observed after 24 hr and images captured digitally using a Zeiss model 25 inverted microscope (Carl Zeiss, Inc, Thornwood, N.Y.) and Hitachi HV-C20 CCD camera (Hitachi Denshi Ltd., Woodbury, N.Y.). Mean values were calculated from images of at least four different fields of both the IgG control and 3D1 mAb treated cultures, and then analyzed using the AngioSys software package (TCS CellWorks, Ltd., Buckingham, UK) with the mean number (±SEM) of junctions and tubules calculated from the analyzed fields.

[1] = tested on: MDA-MB-231 breast cancer cells; test: Western blot analysis of MDA-MB-231 breast cancer cells treated with 3D1; type: cell-based, human; conditions: 72 hrs
Experimental: (§2) To determine the level of Nodal expression in brain, kidney, liver, pancreas, heart and skeletal muscle ready to use adult tissue extracts for Western blotting (WB) were purchased from Santa Cruz Biotechnology. For WB experiments of cell lines, whole cell lysates were prepared and quantified. SDS-PAGE gel electrophoresis and WB were performed using standard techniques. PVDF membranes were blocked in 5% non-fat milk or 5% BSA and antibodies diluted in either 5% non-fat milk or 5% bovine serum albumin overnight at 4° C., depending on the manufacturer's recommendations. Signal was detected using West Pico chemiluminescence reagent (Thermo Fisher) and exposure to x-ray film.

[2] = tested on: A375SM human melanoma cell line; test: Western blot of A375SM cells treated with BRAFi (dabrafenib) or 3D1; type: cell-based; conditions: 72 hr
Experimental: as §2

recombinant Nodal = molecular target: T1, recombinant Nodal (Homo sapiens, UniProt Q96S42); test: SPR dose-dependent binding of human recombinant Nodal to 3D1 immobilized on the CM5 sensor chip; set-up: E. coli derived His238 Leu347, with an N-terminal Met; purchased R&D System 3218ND; host or cells: E. coli; conditions: rhNodal injected, read-out: estimated KD
T1 sequence (Q96S42 238-347): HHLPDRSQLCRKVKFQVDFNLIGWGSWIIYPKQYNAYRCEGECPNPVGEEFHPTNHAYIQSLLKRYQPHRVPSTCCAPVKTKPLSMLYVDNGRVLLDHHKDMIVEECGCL
Text: Dose-dependent binding of human recombinant Nodal to 3D1 antibody immobilized on the CM5 sensor chip was characterized.

B1: 3D1: mouse monoclonal anti-Nodal antibody raised against hNodal(44-67); light chain SEQ ID NO:1, heavy chains SEQ ID NO:2 and 3 (protein)
light: DIKMTQSPASLSASVGETVTITCRASGNIHNYLAWYQQKQGKSPQLLVYNAKTLADGVPSRFSGSGSGTQYSLKINSLQPEDFGSYYCQHFWSTPHVRCWDQAGTETEAW
heavy 1: VKLVESGGGLVKPGGSLKLSCAASGFTFSSYAMSWVRQTPEKRLEWVASISSGGCTYYPDSVKGRFTISRDNARNILYLQMSSLRSEDTAMYYCARGSMITADGNSLLLCYGLLGSRNLXHR
heavy 2: VKLVESGGGLVQPGGSMKLSCVASGFTFRNYWMSWVRQSPEKGLEWVAEIRLKSDNYAARYAESVKGKFTISRDDSKSRLYLQMNSLRAEDTGIYYCTGIRRFAYWGQGTL
modifications: not fully specified; (120)..(120) Xaa can be any naturally occurring amino acid
How did the “clonogenicity / anchorage independent growth in soft agar” value (C8161 melanoma cells) turn out when B1 was run?
Its value is “a decrease in clonogenicity”.

What about the “clonogenicity / anchorage independent growth in soft agar” value (C8161 melanoma cells; listed as 3D1 mAb) of the same molecule?
Its value is “reduced ability to form non-adherent spheroidal clusters; also recorded: significant reduction in anchorage independent growth”.

What about the “formation of vasculogenic mimicry networks (junctions and tubules)” value (C8161 cells) of the same molecule?
The value was “did not complete the formation of networks”.

And the “formation of vasculogenic mimicry networks (junctions and tubules)” value (C8161 cells; listed as 3D1 mAb)?
Its value is “unable to form complete networks characteristic of VM; also recorded: significant reduction in the ability to form junctions and tubules”.

What about the “Nodal expression and P-H3 by WB” value [1] of the same molecule?
Its value is “noteworthy reduction”.

What about the “reduction in Nodal” value ([1]; 4 μg/ml, vs IgG control) of the same molecule?
The value was 45%.

What about the “reduction in the level of the proliferation/mitosis marker P-H3” value ([1]; 4 μg/ml, vs IgG control) of the same molecule?
Its value is 49%.

And the Nodal expression [2]?
Its Nodal expression is “more dramatic reduction in Nodal expression”.

And the Nodal expression ([2]; listed as 3D1 mAb)?
The Nodal expression was “significantly reduced”.

And the Kd (recombinant Nodal)?
The Kd was 6.6 nM.
